{
  "source": "patent US5804555",
  "target": "commercially available lactoferrin (manufactured by Oleofina Company, Belgium) just as isolated from cow's milk (bovine (cow's milk)) (UniProt P24627)",
  "data": [
    {"substance": "commercially available swine pepsin (1:10000; manufactured by Wako Jun-yaku Co., Ltd.) (from UniProt P00791) (enzyme)", "values": [
      {"measurement": "hydrolyzing rate of the product", "value": 11.3, "unit": "%"}
    ]}
  ]
}
